Results from publication doi:10.1101/2023.03.02.528060.

How the values were obtained:
[1] = molecular target: Rous sarcoma virus integrase, wt IN (1-278) (Rous sarcoma virus (Prague A)); experiment: cryo-EM structure
[2] = molecular target: Rous sarcoma virus integrase, wt full-length IN (1-286) (Rous sarcoma virus (Prague A)); experiment: SEC
[3] = molecular target: Rous sarcoma virus integrase (1-286) Y246A (Rous sarcoma virus (Prague A)); experiment: SEC
[4] = molecular target: Rous sarcoma virus integrase (1-286) R244A (Rous sarcoma virus (Prague A)); experiment: SEC
[5] = molecular target: Rous sarcoma virus integrase (1-286) R244E (Rous sarcoma virus (Prague A)); experiment: SEC

Substance: Rous sarcoma virus integrase, wt IN (1-278) (enzyme)
- stoichiometry N [1]: 8

Substance: Rous sarcoma virus integrase, wt full-length IN (1-286) (enzyme)
- stoichiometry N [2]: 2

Substance: Rous sarcoma virus integrase (1-286) Y246A (enzyme)
- stoichiometry N [3]: 2

Substance: Rous sarcoma virus integrase (1-286) R244A (enzyme)
- stoichiometry N [4]: 2

Substance: Rous sarcoma virus integrase (1-286) R244E (enzyme)
- stoichiometry N [5]: 2
